Laboratory results reported in FireProtDB.
“And” between values parts separate entries of the source, which are not always exact repeats. Identical values can stand only once.

Details: whole UniProt chain shown
[1] = Pectobacterium carotovorum, pH 7.4, Thermal, DSC, CGH-10, reversible: no
[2] = Saccharolobus solfataricus (strain ATCC 35092 / DSM 1617 / JCM 11322 / P2), pH 7, Thermal, DSC, Unknown, reversible: yes
[3] = Paracoccus pantotrophus, pH 7, 25 °C, Urea, CD, Sodium phosphate 20 mM, Na2SO4 0.5 M, reversible: yes
[4] = Oryza sativa subsp. japonica, pH 7, Thermal, DSC, Potassium phosphate buffer, NaCl, reversible: yes
[5] = Mus musculus, pH 7.2, 25 °C, Urea, Fluorescence, Sodium phosphate 20 mM, Sodium chloride 100 mM, reversible: Yes
[6] = Lithobates pipiens, pH 6, 25 °C, GdnHCl, DSC, MES 100 mM, reversible: yes

B1: Amicyanin wild type, P22364 (protein)
chain: MISATKIRSCLAACVLAAFGATGALADKATIPSESPFAAAEVADGAIVVDIAKMKYETPELHVKVGDTVTWINREAMPHNVHFVAGVLGEAALKGPMMKKEQAYSLTFTEAGTYDYHCTPHPFMRGKVVVE
Tm (Paracoccus denitrificans, pH 7.5, Thermal, CD, Potassium Phosphate Buffer 100 mM): 60 °C and 55 °C
Tm (Paracoccus denitrificans, pH 7.5, Thermal, absorbance, Potassium Phosphate Buffer 10 mM): 66.4 °C

B2: Pectate lyase wild type, Q47471 (protein)
chain: MFKYLTPIFLCTAAFSFQAQADDTMLMLLKKDNATYLSWSTDAGNVVRQDVYRSTSNNQAGSEKIAELNSTDRTFTDLTANPKSDYWYWVDTVSSNNNVQKSNAAQTAPAPLRAAPLKAASSECKAGAVIKDKTVDCGGITLGLSCTGDSDKQPPVITLENATIKNLRISEKGGSDGIHCKSGNCRIENVIWEDVCEDAATNLGKTMTIVGGVAHNTTNGPGGKPDKVLQQNAKNSHTIVQGNFTLTGQHGKLWRSCGDCTNNGGPRNLTIISATVNGTIDSIAGVNRNFGDVAEIRDLRIKNYKAGNPKICEEFKGIEKGKGKTEKYGEFWDSKNCKVSRSNVKAL
unfolding free energy (Pectobacterium carotovorum, pH 7.4, 25 °C, GdnHCl, DSC, CGH-10, reversible: no): 8.7 kcal/mol
Tm [1]: 81.1 °C
unfolding enthalpy (calorimetric) [1]: 102 kcal/mol

B3: DNA-binding protein 7d wild type, P39476 (protein)
chain: MATVKFKYKGEEKEVDISKIKKVWRVGKMISFTYDEGGGKTGRGAVSEKDAPKELLQMLEKQKK
Tm (Saccharolobus solfataricus (strain ATCC 35092 / DSM 1617 / JCM 11322 / P2), pH 4.5, Thermal, NMR, Unknown): 60.9 °C
unfolding free energy (Saccharolobus solfataricus (strain ATCC 35092 / DSM 1617 / JCM 11322 / P2), pH 6.1, 25 °C, GdnHCl, Fluorescence, MES 50 mM, NaCl 100 mM): 5.93 kcal/mol
Tm [2]: 99 °C
heat capacity change of unfolding [2]: 0.75 kcal/mol/K
unfolding enthalpy (calorimetric) [2]: 65 kcal/mol

B4: Pseudoazurin wild type, P80401 (protein)
chain: MFHHSLAAAAAALLALAAPGFAATHEVHMLNKGESGAMVFEPAFVRAEPGDVINFVPTDKSHNVEAIKEILPEGVESFKSKINESYTLTVTEPGLYGVKCTPHFGMGMVGLVQVGDAPENLDAAKTAKMPKKARERMDAELAQVN
denaturant m value [3]: 1.87 kcal/mol/M
unfolding free energy [3]: 6.88 kcal/mol

B5: Protein CutA 1, chloroplastic wild type, Q109R6 (protein)
chain: MPLLPSPLGSLSAAATAAPRRAAAAAGLSPLLLRRRAPIAGALLFLSLGAFAGVRSLSSSASARMESTSTTVPSIVVYVTVPNKEAGKRLAGSIISEKLAACVNIVPGIESVYWWEGKVQTDAEELLIIKTRESLLDALTEHVKANHEYDVPEVIALPIKGGNLKYLEWLKNSTRES
Tm [4]: 97.3 °C
unfolding enthalpy (calorimetric) [4]: 347 kcal/mol
unfolding free energy [4]: 0.79 kcal/mol
denaturant midpoint (higher = more stable) (Oryza sativa subsp. japonica, pH 8, 37 °C, GdnHCl, CD, Tris-HCl buffer, NaCl, transition: 2, reversible: yes): 2.3 M

B6: Adapter molecule crk wild type, Q64010 (protein)
chain: MAGNFDSEERSSWYWGRLSRQEAVALLQGQRHGVFLVRDSSTSPGDYVLSVSENSRVSHYIINSSGPRPPVPPSPAQPPPGVSPSRLRIGDQEFDSLPALLEFYKIHYLDTTTLIEPVARSRQGSGVILRQEEAEYVRALFDFNGNDEEDLPFKKGDILRIRDKPEEQWWNAEDSEGKRGMIPVPYVEKYRPASASVSALIGGNQEGSHPQPLGGPEPGPYAQPSVNTPLPNLQNGPIYARVIQKRVPNAYDKTALALEVGELVKVTKINVSGQWEGECNGKRGHFPFTHVRLLDQQNPDEDFS
denaturant m value [5]: 0.66 kcal/mol/M
unfolding free energy [5]: 3.33 kcal/mol

B7: Protein P-30 wild type, P22069 (protein)
chain: QDWLTFQKKHITNTRDVDCDNIMSTNLFHCKDKNTFIYSRPEPVKAICKGIIASKNVLTTSEFYLSDCNVTSRPCKYKLKKSTNKFCVTCENQAPVHFVGVGSC
denaturant m value [6]: 3.08 kcal/mol/M
denaturant midpoint (higher = more stable) [6]: 4.5 M
unfolding free energy [6]: 13.9 kcal/mol

B8: wild type, Q88HV5 (protein)
chain: MPFQQGLLATPVPAHARHLFFTLQSPEALPAALDALLPQVDGKQLLLGVGAPLAKALGREIPGLRPFPLLDAAVENPSTQHALWLWLRGDERGDLLLRTQALEQALAPALSLADSVDGFLHRGGHDLTGYEDGTENPTDEEAVQAAIAADGSSFAAFQLWKHDLQYFKSLPQADQDNIIGRRLSDNEELDDAPASAHVKRTAQESFEPEAFMVRRSVSWADQRGAGLAFVALGKSFEAFEVQLRRMSGLEDGIIDGLYRFSRPLTGGYYWCPPMSETGVDLSPLLRA
Tm (Pseudomonas putida (strain ATCC 47054 / DSM 6125 / CFBP 8728 / NCIMB 11950 / KT2440), pH 7.6, Fluorescence spectroscopy): 65 °C
